{
  "source": "patent US20110171205A1",
  "biological_target": "hSlo, human pore-forming α-subunit of the high conductance calcium-activated potassium channel (maxi-K) (human) (UniProt Q12791)",
  "sequence (Q12791 whole entry)": "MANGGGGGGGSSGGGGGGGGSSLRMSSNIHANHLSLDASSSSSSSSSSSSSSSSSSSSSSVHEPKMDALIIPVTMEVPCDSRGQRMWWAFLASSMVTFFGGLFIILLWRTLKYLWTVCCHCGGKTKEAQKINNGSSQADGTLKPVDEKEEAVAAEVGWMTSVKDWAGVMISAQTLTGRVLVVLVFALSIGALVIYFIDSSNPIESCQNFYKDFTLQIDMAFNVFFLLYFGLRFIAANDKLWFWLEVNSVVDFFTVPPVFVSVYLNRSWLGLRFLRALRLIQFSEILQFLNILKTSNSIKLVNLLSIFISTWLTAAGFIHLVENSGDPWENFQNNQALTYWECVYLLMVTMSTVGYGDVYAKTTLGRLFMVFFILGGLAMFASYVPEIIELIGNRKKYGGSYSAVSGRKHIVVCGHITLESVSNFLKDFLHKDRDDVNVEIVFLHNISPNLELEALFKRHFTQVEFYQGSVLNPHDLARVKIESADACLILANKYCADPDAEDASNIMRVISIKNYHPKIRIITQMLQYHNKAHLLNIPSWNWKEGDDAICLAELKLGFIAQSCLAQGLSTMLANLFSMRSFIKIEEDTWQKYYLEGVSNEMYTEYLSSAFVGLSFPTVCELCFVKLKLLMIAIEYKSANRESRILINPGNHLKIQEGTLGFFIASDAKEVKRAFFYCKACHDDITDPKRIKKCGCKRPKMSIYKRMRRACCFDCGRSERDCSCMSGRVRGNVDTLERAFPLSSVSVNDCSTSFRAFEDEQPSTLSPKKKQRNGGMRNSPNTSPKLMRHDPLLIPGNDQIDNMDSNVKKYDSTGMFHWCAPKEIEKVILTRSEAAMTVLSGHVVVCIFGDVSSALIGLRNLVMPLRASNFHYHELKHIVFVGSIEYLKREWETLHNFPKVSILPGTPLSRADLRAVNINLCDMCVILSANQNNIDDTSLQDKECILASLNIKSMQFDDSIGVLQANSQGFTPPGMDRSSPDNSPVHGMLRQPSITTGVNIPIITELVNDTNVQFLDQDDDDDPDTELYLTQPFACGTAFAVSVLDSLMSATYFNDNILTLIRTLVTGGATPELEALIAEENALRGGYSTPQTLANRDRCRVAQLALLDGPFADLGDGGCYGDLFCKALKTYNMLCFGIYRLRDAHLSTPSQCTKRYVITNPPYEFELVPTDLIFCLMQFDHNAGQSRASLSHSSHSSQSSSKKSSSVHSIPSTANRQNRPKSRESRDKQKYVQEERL",
  "assay": "cell-based or functional assay",
  "data": [
    {"substance": "charybdotoxin (from UniProt P13487 23-59) (peptide)", "values": [
      {"measurement": "block of hSlo current (whole cell patch) at 300 nM toxin", "value": "> 90", "unit": "%"}
    ]},
    {"substance": "iberiotoxin (from UniProt P24663 1-37) (peptide)", "values": [
      {"measurement": "block of hSlo current (whole cell patch) at 300 nM toxin", "value": "> 90", "unit": "%"}
    ]}
  ]
}
